Results published in patent publication US10894811B2, “Peptide inhibitors of calcium channels” (The University of North Carolina at Chapel Hill, priority 2016, dated 2021).
“Also recorded” adds a separate entry of the source.

Tests used:
tracheal rings = assay: Myography of murine tracheal rings (ex vivo contraction); parameters: species or system mouse; details: pretreatment with recombinant SPLUNC1 protein for 1 h prior to agonist addition
Method: Myography of Murine Tracheal Rings: Tracheas were excised from 8-week old SPLUNC1 WT and KO mice. After removing excessive connecting tissue, the trachea was cut into ˜4-mm rings, mounted on a DMT 620M myography apparatus and allowed to rest in modified Ringer's solution (119 mM NaCl, 4.7 mM KCl, 1.17 mM MgSO4, 1.18 mM KH2PO4, 2.5 mM CaCl2, 25 mM NaHCO3, 0.027 mM EDTA, 5.5 mM glucose) with continuous oxygenation (95% O2/5% CO2) at 37° C. for 20 min with no applied tension. Optimal passive tension (1 mN) was then applied to the rings. The baseline force was then recorded after stable tension was achieved. The induced contractile force of each ring was assessed by measuring contraction stimulated by 60 mM KCl or […] Ach (unless indicated otherwise), respectively.

Human ASMCs = assay: Cell contraction assay (collagen gel); format: cell-based; details: pre-incubation with recombinant SPLUNC1; with or without Ach; 60 min
Method: Cell contraction assay: The cell contraction assay was performed using a standard commercially available kit (Cell Biolabs). Human ASMCs were harvested and re-suspended in DMEM, two parts of cells were mixed with eight parts of collagen gel lattice mixture and plated for 1 h at 37° C. After the gel solidified, 1 ml of medium was added and incubated for 48 h. Next the gels were released from the sides of wells, and the images were taken using a ChemiDoc™ MP imager (BioRad) at 0 and 1 h after adding indicated reagents. The changes of collagen gel surface areas were analyzed using ImageJ software and normalized to areas of gels at 0 time point.

hASMCs = assay: Calcium imaging using fura-2 (thapsigargin-induced Ca2+ signaling); format: cell-based, human
Method: Calcium imaging: Calcium imaging using fura-2 was adapted from a previous published protocol with minor modifications (Sheridan et al., J. Biol. Chem. 288:33509 (2013)). Briefly, hASMCs were loaded with 2 μM fura-2 AM (Invitrogen) and serosal media from HBEC cultures or recombinant SPLUNC1 at 37° C. for 1 h. Cultures were washed with a standard Ringer's solution (101 mM NaCl, 12 mM NaHCO3, 1.2 mM MgCl2, 1.2 mM CaCl2, […], 24 mM HEPES, 10 mM glucose, pH 7.4) or with Ca^2+-free Ringer's solution as indicated. Cultures were then placed in the Ringer's solution, and images were collected with a 40×1.4 NA oil objective on a Nikon Ti-S inverted microscope. Fura-2 fluorescence was acquired alternately at 340 and 380 nm (emission >450 nm) using LUDL filter wheels, obtained with an Orca FLASH 4.0 CMOS camera (Hammamatsu), and controlled with HCImageLive software. Cell bodies were identified as individual regions of interest (ROIs). Background subtraction was performed using a region without the cell. Signals were converted to relative changes (F/F0) where F0 was the ratio of the average fluorescent intensity (340/380) of ROIs at 0 time point. A total of 20 cells/coverslip were recorded. ΔF/F0 represents average peak fluorescent intensity changes of three independent experiments.

TRPC3 = molecular target: T1, TRPC3 (Homo sapiens, UniProt Q13507); assay: Co-immunoprecipitation in HEK293T cell lysates (V5-SPLUNC1 / Myc-TRPC3); format: binding; details: HEK293T cells cotransfected with V5-SPLUNC1 and Myc-TRPC3
T1 construct: host or cells: HEK293T
T1 sequence (Q13507 74-921 limits assumed): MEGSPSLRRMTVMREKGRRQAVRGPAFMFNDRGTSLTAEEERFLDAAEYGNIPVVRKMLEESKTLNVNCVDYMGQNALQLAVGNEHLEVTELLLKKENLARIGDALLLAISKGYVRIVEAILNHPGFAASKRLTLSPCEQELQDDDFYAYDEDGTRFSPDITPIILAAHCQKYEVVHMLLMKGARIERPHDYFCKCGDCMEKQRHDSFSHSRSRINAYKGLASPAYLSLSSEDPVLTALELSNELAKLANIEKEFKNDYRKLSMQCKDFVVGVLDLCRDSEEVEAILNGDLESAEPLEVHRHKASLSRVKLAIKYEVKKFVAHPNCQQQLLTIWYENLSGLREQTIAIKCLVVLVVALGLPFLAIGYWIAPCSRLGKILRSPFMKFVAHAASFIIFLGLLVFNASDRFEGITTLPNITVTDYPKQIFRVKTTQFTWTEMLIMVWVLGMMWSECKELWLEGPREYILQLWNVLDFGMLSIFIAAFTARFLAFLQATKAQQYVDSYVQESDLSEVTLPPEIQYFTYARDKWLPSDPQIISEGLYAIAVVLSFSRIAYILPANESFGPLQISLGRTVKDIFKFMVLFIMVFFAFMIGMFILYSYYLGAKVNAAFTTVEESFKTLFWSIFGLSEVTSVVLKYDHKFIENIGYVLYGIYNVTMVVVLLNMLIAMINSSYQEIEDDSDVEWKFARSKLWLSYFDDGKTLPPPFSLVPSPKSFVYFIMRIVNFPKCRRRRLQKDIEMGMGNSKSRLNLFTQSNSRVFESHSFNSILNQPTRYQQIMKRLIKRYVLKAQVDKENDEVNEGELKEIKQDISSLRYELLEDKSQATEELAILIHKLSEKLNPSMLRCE
Method: DNA constructs: Yellow fluorescent protein (YFP) tagged human Orai1 and Myc tagged TRPC3 were gifts from Dr. Craig Montell (Addgene plasmid #25902) and Dr. Anjana Rao (Addgene plasmid #19756), respectively. HA tagged human Orai1 was a generous gift from Dr. Patrick G Hogan at La Jolla Institute for Allergy & Immunology. pcDNA3.1(+)-V5-SPLUNC1 was a generous gift from Dr. Colin D Bingle at the University of Sheffield.
For immunoprecipitation, cell lysates were collected at 48 h post-transfection in Pierce® IP lysis buffer in the presence of 1× protease inhibitor cocktail (PIC) (Roche). Cell lysates were pre-cleared with protein A/G agarose beads and then incubated with 1 μg of antibodies against HA (BioLegend) or V5 (Invitrogen) with protein A/G agarose beads on a rotator at 4° C. overnight. After three washes with IP lysis buffer, immunoprecipitated complexes were eluted in sample buffer (50 mM Tris-HCl [pH 6.8], 2% sodium dodecyl sulfate (SDS), 10% glycerol, 5% (v/v) β-mercaptoethanol (BME), 0.1% bromophenol blue) by heating the samples at 95° C. for 5 min, electrophoresed through SDS-polyacrylamide gels, and subjected to immunoblot analysis.

B1: SPLUNC1: Short palate, lung and nasal epithelium clone 1, recombinant full length protein (protein, listed as Homo sapiens)
chain: MFQTGGLIVFYGLLAQTMAQFGGLPVPLDQTLPLNVNPALPLSPTGLAGSLTNALSNGLLSGGLLGILENLPLLDILKPGGGTSGGLLGGLLGKVTSVIPGLNNIIDIKVTDPQLLELGLVQSPDGHRLYVTIPLGIKLQVNTPLVGASLLRLAVKLDITAEILAVRDKQERIHLVLGDCTHSPGSLQISLLDGLGPLPIQGLLDSLTGILNKVLPELVQGNVCPLVNEVLRGLDITLVHDIVNMLIHGLQFVIKV
With B1 as the molecule, how does the “contraction (contractile force) of tracheal rings” value (tracheal rings) read?
The value was “suppressed contraction”.

And the “ASMC contraction in collagen matrix (decrease in gel surface area)” value (Human ASMCs)?
Its value is “significantly reduced; also recorded: decreases airway smooth muscle (ASM) contractility”.

And the “ability of SPLUNC1 to inhibit Ca2+ signaling” value (hASMCs; ASMC with Orai1 knocked down by shRNA, TG)?
The value was “lost”.

And the “ability to suppress Ca2+ signaling, SPLUNC1 mutants/peptides” value (hASMCs; ASMCs pre-incubated with truncated SPLUNC1 peptides (FIG. 4H))?
The value was “Inhibition was not different”.

And the “SR Ca2+ release” value (hASMCs; TG without extracellular Ca2+ (EGTA), pre-treatment with SPLUNC1)?
The value was “no effect”.

And the “thapsigargin (TG)-induced Ca2+ flux (peak fura-2 ratio change)” value (hASMCs; human ASMCs, co-incubated 1 h)?
The value was “significantly reduced; also recorded: inhibits TG induced cytosolic Ca^2+ increases in a dose-dependent manner; also recorded: suppresses cytosolic Ca^2+ elevation in the presence of TG”.

And the “SOCE (store operated Ca2+ influx)” value (hASMCs; reintroduction of extracellular Ca2+ after TG, pre-treatment with SPLUNC1)?
The value was “significantly suppressed; also recorded: blocks store operated Ca^2+ influx in ASMCs”.

And the “co-immunoprecipitation with TRPC3” value (TRPC3)?
The value was “but not an alternate Ca^2+ channel (TRPC3), could be co-immunoprecipitated; also recorded: does not interact with TRPC3”.
